T1: 人白介素23(Human interleukin 23，hIL-23) (human, UniProt Q9NPF7 20-189; P29460 23-328)
T1 sequence 1: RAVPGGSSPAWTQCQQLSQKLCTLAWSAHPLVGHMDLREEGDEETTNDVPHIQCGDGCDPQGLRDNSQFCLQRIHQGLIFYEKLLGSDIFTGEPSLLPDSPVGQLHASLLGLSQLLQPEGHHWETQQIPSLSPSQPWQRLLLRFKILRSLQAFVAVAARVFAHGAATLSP
T1 sequence 2: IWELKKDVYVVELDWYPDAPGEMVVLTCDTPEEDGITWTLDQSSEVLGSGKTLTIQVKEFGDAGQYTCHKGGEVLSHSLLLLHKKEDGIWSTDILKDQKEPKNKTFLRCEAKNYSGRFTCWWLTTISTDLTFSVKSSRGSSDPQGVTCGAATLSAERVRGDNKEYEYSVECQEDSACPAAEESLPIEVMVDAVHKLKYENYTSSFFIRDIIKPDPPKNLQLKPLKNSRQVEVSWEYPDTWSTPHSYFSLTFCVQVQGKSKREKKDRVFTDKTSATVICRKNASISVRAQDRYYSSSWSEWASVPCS

B1: 抗人白介素23单克隆抗体QX004N(HZD90-32) (antibody, human IgG1, kappa, V domains shown)
VH: EVQLVESGGGLVQPGGSLRLSCAASGFSLSNHEMSWVRQAPGKGLEWIGIITTSDTTYYATWAKGRFTISRDNSKNTLYLQMNSLRAEDTAVYYCARVDIVLLSVTSRIWGQGTLVTVSS
VL: DVVMTQSPSSLSASVGDRVTITCQASQSVSTYLSWYQQKPGKAPKLLIYGASNLESGVPSRFSGSGSGTDFTLTISSLQPEDFATYYCQSGYVFAGLTFGGGTKVEIKR
B2: Risankizumab (antibody, V domains shown)
VH: QVQLVQSGAEVKKPGSSVKVSCKASGYTFTDQTIHWMRQAPGQGLEWIGYIYPRDDSPKYNENFKGKVTITADKSTSTAYMELSSLRSEDTAVYYCAIPDRSGYAWFIYWGQGTLVTVSS
VL: DIQMTQSPSSLSASVGDRVTITCKASRDVAIAVAWYQQKPGKVPKLLIYWASTRHTGVPSRFSGSGSRTDFTLTISSLQPEDVADYFCHQYSSYPFTFGSGTKLEIKR
B3: Guselkumab (antibody, V domains shown)
VH: EVQLVQSGAEVKKPGESLKISCKGSGYSFSNYWIGWVRQMPGKGLEWMGIIDPSNSYTRYSPSFQGQVTISADKSISTAYLQWSSLKASDTAMYYCARWYYKPFDVWGQGTLVTVSS
VL: QSVLTQPPSVSGAPGQRVTISCTGSSSNIGSGYDVHWYQQLPGTAPKLLIYGNSKRPSGVPDRFSGSKSGTSASLAITGLQSEDEADYYCASWTDGLSLVVFGGGTKLTVLG

Columns and labels:
[1] = biological target: T1, 人白介素23(Human interleukin 23，hIL-23); assay: cell-based or functional assay
[2] = biological target: T1, 人白介素23(Human interleukin 23，hIL-23); assay: SPR, Biacore T200, antibody captured on Protein A chip, IL-23 as analyte, 25℃, 1:1 model

| Binder | 抑制IL-23诱导的HEK Blue TM IL-23细胞中STAT3磷酸化活性 IC50 [1] | 抑制IL-23诱导的人NK细胞释放IFN-γ活性 IC50 [1] | 抑制IL-23诱导的小鼠脾脏细胞释放IL-17A活性 IC50 [1] | Kd [2] | koff [2] | kon [2] |
| --- | --- | --- | --- | --- | --- | --- |
| B1 | 0.00321 µg/mL | 0.0104 µg/mL | 0.0117 µg/mL | 0.101 nM | 3.5e-05 s⁻¹ | 366000 M⁻¹ s⁻¹ |
| B2 | 0.00351 µg/mL | 0.0111 µg/mL | 0.00843 µg/mL | 0.052 nM | 3.7e-05 s⁻¹ | 706000 M⁻¹ s⁻¹ |
| B3 |  | 0.0168 µg/mL | 0.0135 µg/mL | 0.063 nM |  |  |

From CN111956606A (JIANGSU QUANXIN BIOMEDICAL CO LTD, dated 2020)
